Residue numbers refer to the chain shown, from its start.

The labels stand for the following.
T1: cynomolgus monkey HVEM (cynomolgus monkey, UniProt A0A2K5W0R1 39-203)
T1 sequence: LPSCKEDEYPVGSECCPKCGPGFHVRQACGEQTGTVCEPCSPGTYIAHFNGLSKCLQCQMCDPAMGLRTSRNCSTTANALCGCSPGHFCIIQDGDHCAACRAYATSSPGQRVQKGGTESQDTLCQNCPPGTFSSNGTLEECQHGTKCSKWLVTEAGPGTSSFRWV

T2: murine HVEM (murine, UniProt Q80WM9 39-206, limits assumed)
T2 construct: also called Mouse
T2 sequence (looked up): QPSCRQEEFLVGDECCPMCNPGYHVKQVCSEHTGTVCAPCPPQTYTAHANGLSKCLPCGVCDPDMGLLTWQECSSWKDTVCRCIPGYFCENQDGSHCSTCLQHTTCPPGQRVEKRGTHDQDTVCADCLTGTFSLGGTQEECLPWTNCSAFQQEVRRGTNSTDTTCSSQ

T3: human HVEM (human, UniProt Q92956 39-202, limits assumed)
T3 sequence (looked up): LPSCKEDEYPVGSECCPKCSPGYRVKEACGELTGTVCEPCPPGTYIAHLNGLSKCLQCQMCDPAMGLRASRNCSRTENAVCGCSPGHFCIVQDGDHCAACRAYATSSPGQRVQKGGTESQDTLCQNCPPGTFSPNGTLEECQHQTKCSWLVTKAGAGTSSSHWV

T4: Human HEVM recombinant protein (Sino Biological, 10334-H02H) (human, UniProt Q92956 39-202)
T4 construct: construct known only by catalogue number; also called HVEM; human HVEM
T4 sequence (looked up): T3 sequence (looked up)

T5: His-tagged human HVEM (human, UniProt Q92956 39-202, limits assumed)
T5 construct: Analyte of the BLI assay, 200 nM in PBS; not shown: His tag
T5 sequence (looked up): T3 sequence (looked up)

B1: Ab_050 (H5S19-9A11A) (antibody, V domains shown)
VH: QVQLKQSGPGLVQPSQSLSITCTVSGFSLTTYGVHWVRQSPGKGLEWLGVIWSGGSTDYNAAFISRLSISKDNSKSQVFFKMNSLQANDTAIYYCARRGYGSPYYYAMDYWGQGTSVTVSS
VL: EIVLTQSPALMAASPGEKVTITCSVSSSISSSNLHWYQQKSETSPKPWIYGTSNLASGVPVRFSGSGSGTSYSLTISSMEAEDAATYYCQQWSSYPLTFGAGTKLELK
notes: also called Ab_50
B2: Ab_065 (H5S20-39A29A) (antibody, V domains shown)
VH: EVKLVESGGGLVKPGGSLKLSCAASGFTFSSYAMSWVRQTPETRLEWVASISSGGNTYYPDSVKGRFTISRDNVRNILYLQMSSLRSEDTAMYFCTRGGYGSSHVIWGQGTTLTVSS
VL: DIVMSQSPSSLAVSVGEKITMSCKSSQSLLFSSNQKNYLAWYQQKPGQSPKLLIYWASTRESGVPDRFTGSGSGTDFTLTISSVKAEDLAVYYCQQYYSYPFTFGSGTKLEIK
notes: also called Ab_65
B3: Ab_001 (H5S14-1A1A) (antibody, V domains shown)
VH: DVKLVESGGGLVKPGGSLKLSCAASVFTFSRYTMSWVRQTPEKRLEWVATISSGGSYTYYPDSVKGRFTISRDNAKNTLYLQMSSLKSEDTAIYYCTRGGDGLFDYWGQGTALTVSS
VL: DVQITQSPSYLAASPGETITINCRASKSISKYLAWYQEKPGKTNQLLIYSGSTLQSGIPSRFSGSGSGTDFTLTISSLEPEDFAMYYCQQHNEYPWTFGGGTKLEIK
notes: also called Ab_1
B4: Ab_030 (H5S15-18A17A) (antibody, V domains shown)
VH: QVQLQQSGAELVRPGTSVKMSCKAAGYTFTNSWIGWVKQRPGHGLEWIGDIYPGGGYTNYYEKFKVKATLTADTSSSTAYMQLSSLTSEDSAIYYCASSGAYWGQGTTLTVSS
VL: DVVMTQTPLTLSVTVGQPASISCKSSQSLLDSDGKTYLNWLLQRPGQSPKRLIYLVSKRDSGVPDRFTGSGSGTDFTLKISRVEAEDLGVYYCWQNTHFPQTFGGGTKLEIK
notes: also called Ab_30
B5: Ab_031 (H5S15-8A17A) (antibody, V domains shown)
VH: B4 VH with N31D, Y61N, V66G, S85R
VL: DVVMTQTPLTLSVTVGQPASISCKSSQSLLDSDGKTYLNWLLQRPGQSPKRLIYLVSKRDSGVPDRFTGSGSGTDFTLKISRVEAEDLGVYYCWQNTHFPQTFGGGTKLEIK
notes: also called Ab_31
B6: Ab_051 (H5S19-4A6A) (antibody, V domains shown)
VH: QVQLKESGPGLVAPSQSLSITCTVSGFSLTGYGVNWVRQPPGKGLEWLGMIWGDGNTDYNSALKSRLSISKDNSKSQVFLKMNSLQTDDTARYYCARSYGSYWGQGTLVTVSA
VL: QIVLTQSPAIMSASPGEKVTMTCSASSSVSYMYWYQQKPGSSPRLLIYDTSNLASGVPVRFSGSGSGTSYSLTISRMEAEDAATYYCQQWSSYPFTFGSGTKLEIK
notes: also called Ab_51
B7: Ab_012 (H5S14-13A11A) (antibody, V domains shown)
VH: QVQLQQSGAELVRPGTSVKISCKASGYIFTNSWLGWIKQRPGHGLEWIGDVYPGGGYNKYNEKFKGKATLTIDTSASTAYMQLSRLTSEDSAVYFCAGAMDYWGQGTSVTVSS
VL: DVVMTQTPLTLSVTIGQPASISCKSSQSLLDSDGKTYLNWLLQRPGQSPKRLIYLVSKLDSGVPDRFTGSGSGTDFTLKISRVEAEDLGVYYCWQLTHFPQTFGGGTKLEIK
notes: also called Ab_12
B8: Ab_067 (H5S20-7B7B) (antibody, V domains shown)
VH: B7 VH with V12I, I28R, Q39L, V51I, K65R, I72A, A76S, R85S, Y102S
VL: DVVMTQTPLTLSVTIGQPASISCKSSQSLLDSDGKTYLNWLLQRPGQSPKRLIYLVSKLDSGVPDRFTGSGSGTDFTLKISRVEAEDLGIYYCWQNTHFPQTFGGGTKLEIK
notes: also called Ab_67
B9: Ab_013 (H5S14-14A11A) (antibody, V domains shown)
VH: B7 VH with S32Y, I72V
VL: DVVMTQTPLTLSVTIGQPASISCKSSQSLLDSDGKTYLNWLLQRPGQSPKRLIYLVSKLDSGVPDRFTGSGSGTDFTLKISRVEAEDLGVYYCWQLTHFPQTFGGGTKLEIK
notes: also called Ab_13
B10: Ab_046 (H5S15-35A31A) (antibody, V domains shown)
VH: B7 VH with I28T, I37V, V51I, I72A, A76S, S84G, R85S
VL: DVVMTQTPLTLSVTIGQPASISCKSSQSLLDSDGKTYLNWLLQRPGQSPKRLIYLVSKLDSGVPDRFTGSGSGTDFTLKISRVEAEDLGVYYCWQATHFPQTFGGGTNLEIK
notes: also called Ab_46
B11: Ab_045 (H5S15-31A12C) (antibody, V domains shown)
VH: B7 VH with I28A, I37V, V51I, I72A, A76S, R85S, M100L
VL: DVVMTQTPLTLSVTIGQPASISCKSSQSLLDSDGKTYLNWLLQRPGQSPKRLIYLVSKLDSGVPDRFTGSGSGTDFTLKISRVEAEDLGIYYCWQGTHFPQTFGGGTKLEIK
notes: also called Ab_45
B12: Ab_069 (H5S20-43A19B) (antibody, V domains shown)
VH: QVQLQQSGAELVRPGTSVMISCKASGYTFTNYWLGWVKQRPGHGLEWIGDIYPGGGYIIYNEKFKGKATLTVDSSATTAYMQLSSLTSEDSAVYFCAGAMDYWGQGTSVTVSS
VL: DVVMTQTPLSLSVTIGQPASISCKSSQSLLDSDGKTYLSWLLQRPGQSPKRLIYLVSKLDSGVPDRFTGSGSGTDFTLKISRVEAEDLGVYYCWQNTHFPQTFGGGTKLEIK
notes: also called Ab_155; Ab_69
B13: Ab_070 (H5S20-7A7A) (antibody, V domains shown)
VH: B7 VH with I28R, V51I, K65R, I72A, A76S, R85S, Y102S
VL: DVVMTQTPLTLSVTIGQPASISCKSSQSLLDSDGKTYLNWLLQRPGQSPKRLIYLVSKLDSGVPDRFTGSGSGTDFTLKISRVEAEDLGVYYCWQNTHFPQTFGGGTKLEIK
notes: also called Ab_70
B14: Ab_068 (H5S20-24A19A) (antibody, V domains shown)
VH: B12 VH with M19K, M81I, S84N, Y102H
VL: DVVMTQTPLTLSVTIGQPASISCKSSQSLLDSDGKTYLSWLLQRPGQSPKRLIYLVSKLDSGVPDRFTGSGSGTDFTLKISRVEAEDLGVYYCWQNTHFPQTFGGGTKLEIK
notes: also called Ab_68

The first test has as its target T1, cynomolgus monkey HVEM. The test is described as follows: ELISA. (In an ELISA, binding on a coated surface is turned into a signal by an enzyme label.)
Molecule B1 returned an ELISA signal of 0.094.

Molecule B2 showed an ELISA signal of 1.52.

As to B3, the ELISA signal was determined as 0.072.

For B4, the ELISA signal amounted to 2.98.

As to B5, the ELISA signal was found to be 3.06.

Molecule B6 showed an ELISA signal of 0.563.

Consider B7, for which the ELISA signal turned out to be 2.89.

In turn, B8 had an ELISA signal of 3.04.

B9: the ELISA signal amounted to 2.74.

The molecule B10 displayed an ELISA signal of 3.03.

Regarding B11, the ELISA signal came to 2.9.

Turning to B12, the ELISA signal is 3.04.

Molecule B13 showed an ELISA signal of 3.1.

In turn, B14 had an ELISA signal of 3.04.

The target of another test is T2, murine HVEM. The test is described as follows: ELISA.
B1: the ELISA signal was determined as 0.047.

B2 displayed an ELISA signal of 0.044.

B3 came in with an ELISA signal of 0.057.

The molecule B4 yielded an ELISA signal of 0.046.

In the case of B5, the ELISA signal stood at 0.042.

The molecule B6 gave an ELISA signal of 0.043.

Take B7: the ELISA signal was found to be 0.044.

Turning to B8, the ELISA signal amounted to 0.047.

Molecule B9 gave an ELISA signal of 0.048.

B10: the ELISA signal amounted to 0.042.

Take B11: the ELISA signal amounted to 0.042.

Consider B12, for which the ELISA signal stood at 0.054.

Take B13: the ELISA signal amounted to 0.062.

B14 registered an ELISA signal of 0.044.

Another test addresses T3, human HVEM. The test is described as follows: ELISA.
Consider B1, for which the ELISA signal turned out to be 3.02.

Turning to B2, the ELISA signal is 3.24.

Take B3: the ELISA signal was determined as 3.3.

B4 had an ELISA signal of 3.08.

Take B5: the ELISA signal is 3.08.

The molecule B6 had an ELISA signal of 3.18.

In turn, B7 displayed an ELISA signal of 3.08.

For the molecule B8, the ELISA signal amounted to 3.05.

With B9, the ELISA signal was 3.

With B10, the ELISA signal amounted to 2.94.

In turn, B11 returned an ELISA signal of 3.08.

B12 displayed an ELISA signal of 3.13.

B13 had an ELISA signal of 3.23.

Turning to B14, the ELISA signal came out at 3.03.

For another test, the target named is T4, Human HEVM recombinant protein (Sino …). The test is described as follows: competition ELISA, competitor LIGHT-His. On the procedure:
(§1) The competitive activity of HVEM antibody to BTLA or LIGHT was evaluated with ELISA-based competitive assay. Briefly Human HEVM recombinant protein (Sino Biological, 10334-H02H, 4 ug/ml, 100 ul/well) was coated to ELISA plate (Thermo Scientific, 469949, 4C overnight). A pre-mixture of HVEM antibody clone with seral dilution and 400 nM BTLA-His (R&D systems, 9235-BT-050) or LIGHT-His (SinoBiological, 10386-H07H) recombinant protein was made and added to the ELISA plate after blocking with 3% BSA (200 ul/well, RT 2 Hr) for 1 Hr at RT. The serial dilutions of HVEM antibody clone involve 7 different concentrations, with a 3-fold dilution performed start from 100 nM for BTLA or 325 nM for LIGHT competitive assay. The concentration was the final concentration. Plate was washed with PBST; diluted HRP-anti-His (Biolegend, 652504, 1:1000) with PBS containing 5% FBS was added 100 ul per well for 1 Hr at RT. TMB substrate (KPL, 52-00-00) 100 ul per well after washing and incubate at room temperature for 15 minutes; then stop the development by adding 100 ul stop solution (KPL, 50-85-06). Plate was read at 450 nm. The IC50 was calculated using GraphPad Prism software (GraphPad Software, Inc. San Diego, CA, USA).
As usually defined, the IC50 is the point on the concentration scale where inhibition reaches its midpoint. Take B1: the IC50 stood at 0.117 µM.

For the molecule B2, the IC50 worked out at 0.008 µM.

As to B3, the concentration for half-maximal inhibition (IC50) stood at 0.715 µM.

Take B4: the IC50 amounted to 0.0219 µM.

As to B5, the IC50 was determined as 0.022 µM.

Turning to B6, the IC50 worked out at 0.0186 µM.

Consider B7, for which the IC50 came to 0.0209 µM.

As to B8, the IC50 was 0.0136 µM.

Consider B9, for which the IC50 is 0.0281 µM.

As for B10, the IC50 came out at 0.0272 µM.

In the case of B11, the IC50 was 0.031 µM.

As to B12, the IC50 was 0.0223 µM.

As to B13, the IC50 was 0.0178 µM.

Consider B14, for which the IC50 came out at 0.0205 µM.

For the next test the target is unchanged. The test is described as follows: competition ELISA, competitor BTLA-His. On the procedure: as §1
As for B1, the IC50 is 0.003 µM.

As to B2, the IC50 came out at 0.0017 µM.

Consider B3, for which the IC50 was 0.0022 µM.

As to B6, the IC50 is 0.0013 µM.

A further test deals with T5, His-tagged human HVEM. The test is described as follows: BLI OctetRed96, mAb captured, 200 nM His-HVEM. The method in brief:
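Kinetics (kon, koff, KD) were fitted from association in 200 nM His-HVEM in PBS and dissociation in PBS buffer. The mouse antibodies had been captured directly from culture supernatant onto anti-mouse IgG Fc sensors.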
In general, Kd refers to the constant that tells how readily two partners part at equilibrium. The koff is the rate constant with which the complex falls apart. In general, kon refers to the second-order rate constant of association. With B1, the equilibrium dissociation constant (Kd) was 0.0422 µM, the dissociation rate constant (koff) turned out to be 0.00481 s⁻¹ and the kon came to 114000 M⁻¹ s⁻¹.

For the molecule B2, the Kd was 0.0149 µM, the koff is 0.0049 s⁻¹ and the kon came to 330000 M⁻¹ s⁻¹.

B3 registered a Kd of 0.55 µM, a koff of 0.154 s⁻¹ and a kon of 280000 M⁻¹ s⁻¹.

Molecule B4 gave a Kd of 0.0103 µM, a koff of 0.00419 s⁻¹ and a kon of 405000 M⁻¹ s⁻¹.

In turn, B5 returned a Kd of 0.011 µM, a koff of 0.00321 s⁻¹ and a kon of 291000 M⁻¹ s⁻¹.

With B6, binding was put at a Kd of 0.0288 µM, the koff stood at 0.0143 s⁻¹ and the kon was found to be 496000 M⁻¹ s⁻¹.

The molecule B7 returned a Kd of 0.00322 µM, a koff of 0.00121 s⁻¹ and a kon of 375000 M⁻¹ s⁻¹.

Take B8: the affinity, expressed as Kd, was 0.00265 µM; the koff amounted to 0.00134 s⁻¹; the kon worked out at 505000 M⁻¹ s⁻¹.

B9 yielded a Kd of 0.00439 µM, a koff of 0.00149 s⁻¹ and a kon of 340000 M⁻¹ s⁻¹.

In turn, B10 had a Kd of 0.00459 µM, a koff of 0.00169 s⁻¹ and a kon of 368000 M⁻¹ s⁻¹.

B11: binding was put at a Kd of 0.00732 µM, the koff worked out at 0.00265 s⁻¹ and the kon amounted to 362000 M⁻¹ s⁻¹.

B12 gave a Kd of 0.00297 µM, a koff of 0.000803 s⁻¹ and a kon of 271000 M⁻¹ s⁻¹.

B13 displayed a Kd of 0.00233 µM, a koff of 0.00102 s⁻¹ and a kon of 438000 M⁻¹ s⁻¹.

The molecule B14 yielded a Kd of 0.00599 µM, a koff of 0.00192 s⁻¹ and a kon of 320000 M⁻¹ s⁻¹.

Source of the values: patent US20240317871A1 (IMMUNOMIC THERAPEUTICS, published 2024).
